Results as given in article PMC2775897.

Biological target: axonemes (purified from sea urchin sperm flagella) (sea urchin)
Test: single-molecule fluorescence microscopy

dwell time: 170 ms
Substance: DNA-kinesin monomer K336 333C_10 bp (from UniProt P33176 1-336)
